Measured values reported in patent publication US20180044374A1.

Experiments:
[1] = biological target: IgG1 monoclonal antibody (probe molecule, Example 1); experiment: SPR (Biacore), ligand on CM5 chip, IgG1 mAb as probe
[2] = biological target: human polyclonal IgG (Gammanorm) (human); experiment: dynamic binding capacity, 6 min residence; ligand […] on agarose beads
[3] = biological target: human polyclonal IgG (Gammanorm) (human); experiment: dynamic binding capacity, measured after 24 h cumulative exposure to 0.5 M NaOH; ligand […] on agarose beads
[4] = biological target: human polyclonal IgG (Gammanorm) (human); experiment: dynamic binding capacity, measured after 24 h cumulative exposure to 0.5 M NaOH; ligand 7.0 mg/ml on agarose beads
[5] = biological target: human polyclonal IgG (Gammanorm) (human); experiment: dynamic binding capacity, 6 min residence; ligand 7.0 mg/ml on agarose beads
[6] = biological target: human polyclonal IgG (Gammanorm) (human); experiment: pH 6-3 citrate gradient elution from column, peak 1
[7] = biological target: human polyclonal IgG (Gammanorm) (human); experiment: pH 6-3 citrate gradient elution from column, peak 2
[8] = biological target: human polyclonal IgG (Gammanorm) (human); experiment: dynamic binding capacity, measured after 24 h cumulative exposure to 0.5 M NaOH; ligand 10.8 mg/ml on agarose beads
[9] = biological target: human polyclonal IgG (Gammanorm) (human); experiment: dynamic binding capacity, 6 min residence; ligand 10.8 mg/ml on agarose beads
[10] = biological target: human polyclonal IgG (Gammanorm) (human); experiment: dynamic binding capacity; matrix A20, ligand 6.4 mg/ml
[11] = biological target: human polyclonal IgG (Gammanorm) (human); experiment: dynamic binding capacity; matrix A63b, ligand 10.6 mg/ml
[12] = biological target: human polyclonal IgG (Gammanorm) (human); experiment: dynamic binding capacity; matrix C3, ligand […]
[13] = biological target: human polyclonal IgG (Gammanorm) (human); experiment: dynamic binding capacity; matrix A54, ligand 21.1 mg/ml
[14] = biological target: human polyclonal IgG (Gammanorm) (human); experiment: dynamic binding capacity; matrix A56, ligand 19.2 mg/ml
[15] = biological target: human polyclonal IgG (Gammanorm) (human); experiment: dynamic binding capacity; matrix A38, ligand […]
[16] = biological target: human polyclonal IgG (Gammanorm) (human); experiment: dynamic binding capacity; matrix S9, ligand 18.4 mg/ml
[17] = biological target: human polyclonal IgG (Gammanorm) (human); experiment: dynamic binding capacity; matrix H35, ligand […]
[18] = biological target: human polyclonal IgG (Gammanorm) (human); experiment: dynamic binding capacity; matrix A56, ligand 7.9 mg/ml
[19] = biological target: human polyclonal IgG (Gammanorm) (human); experiment: dynamic binding capacity; matrix A38, ligand 15.8 mg/ml
[20] = biological target: human polyclonal IgG (Gammanorm) (human); experiment: dynamic binding capacity; matrix A63b, ligand 6.4 mg/ml
[21] = biological target: human polyclonal IgG (Gammanorm) (human); experiment: dynamic binding capacity; matrix H40, ligand 23.0 mg/ml
[22] = biological target: human polyclonal IgG (Gammanorm) (human); experiment: dynamic binding capacity; matrix A33, ligand […]; details: ligand content 6.5 mg/ml
[23] = biological target: human polyclonal IgG (Gammanorm) (human); experiment: dynamic binding capacity; matrix P10, ligand 19.0 mg/ml
[24] = biological target: human polyclonal IgG (Gammanorm) (human); experiment: dynamic binding capacity; matrix H35, ligand 12.3 mg/ml
[25] = biological target: human polyclonal IgG (Gammanorm) (human); experiment: dynamic binding capacity; matrix A63b, ligand 16.7 mg/ml
[26] = biological target: human polyclonal IgG (Gammanorm) (human); experiment: dynamic binding capacity; matrix C3, ligand 15.1 mg/ml
[27] = biological target: human polyclonal IgG (Gammanorm) (human); experiment: dynamic binding capacity; matrix H31, ligand 20.0 mg/ml
[28] = biological target: human polyclonal IgG (Gammanorm) (human); experiment: dynamic binding capacity; matrix A62a, ligand […]
[29] = biological target: human polyclonal IgG (Gammanorm) (human); experiment: dynamic binding capacity; matrix A20, ligand 21.1 mg/ml
[30] = biological target: human polyclonal IgG (Gammanorm) (human); experiment: dynamic binding capacity; matrix C3, ligand 11.9 mg/ml
[31] = biological target: human polyclonal IgG (Gammanorm) (human); experiment: dynamic binding capacity; matrix A56-2, ligand […]
[32] = biological target: human polyclonal IgG (Gammanorm) (human); experiment: dynamic binding capacity; matrix A62a, ligand 9.6 mg/ml
[33] = biological target: human polyclonal IgG (Gammanorm) (human); experiment: dynamic binding capacity; matrix H35, ligand 20.3 mg/ml
[34] = biological target: human polyclonal IgG (Gammanorm) (human); experiment: dynamic binding capacity; matrix H31, ligand […]
[35] = biological target: human polyclonal IgG (Gammanorm) (human); experiment: dynamic binding capacity; matrix A54, ligand […]; details: ligand content 6.7 mg/ml
[36] = biological target: human polyclonal IgG (Gammanorm) (human); experiment: dynamic binding capacity; matrix A56-2, ligand 12.5 mg/ml
[37] = biological target: human polyclonal IgG (Gammanorm) (human); experiment: dynamic binding capacity; matrix A56, ligand […]; details: ligand content 7.1 mg/ml
[38] = biological target: human polyclonal IgG (Gammanorm) (human); experiment: pH 6-3 citrate gradient elution from column, peak 2; ligand […]
[39] = biological target: human polyclonal IgG (Gammanorm) (human); experiment: dynamic binding capacity; matrix A20, ligand […]
[40] = biological target: human polyclonal IgG (Gammanorm) (human); experiment: dynamic binding capacity; matrix C4, ligand 11.2 mg/ml
[41] = biological target: human polyclonal IgG (Gammanorm) (human); experiment: dynamic binding capacity; matrix H40, ligand […]; details: ligand content 6.9 mg/ml
[42] = biological target: human polyclonal IgG (Gammanorm) (human); experiment: dynamic binding capacity; matrix C4, ligand 15.2 mg/ml
[43] = biological target: human polyclonal IgG (Gammanorm) (human); experiment: pH 6-3 citrate gradient elution from column, peak 1; ligand […]
[44] = biological target: human polyclonal IgG (Gammanorm) (human); experiment: dynamic binding capacity; matrix A56-2, ligand 19.2 mg/ml
[45] = biological target: human polyclonal IgG (Gammanorm) (human); experiment: dynamic binding capacity; matrix A38, ligand 11.6 mg/ml
[46] = biological target: human polyclonal IgG (Gammanorm) (human); experiment: dynamic binding capacity; matrix A56, ligand 15.2 mg/ml
[47] = biological target: human polyclonal IgG (Gammanorm) (human); experiment: dynamic binding capacity, measured after 24 h cumulative exposure to 0.5 M NaOH; ligand 9.7 mg/ml on agarose beads
[48] = biological target: human polyclonal IgG (Gammanorm) (human); experiment: dynamic binding capacity, 6 min residence; ligand 9.7 mg/ml on agarose beads
[49] = biological target: human polyclonal IgG (Gammanorm) (human); experiment: dynamic binding capacity, measured after six 4 h cycles in 1.0 M NaOH; ligand 9.7 mg/ml on agarose beads
[50] = biological target: human polyclonal IgG (Gammanorm) (human); experiment: dynamic binding capacity, 6 min residence; ligand 9.7 mg/ml on agarose beads; remark: listed apart in the source
[51] = biological target: human polyclonal IgG (Gammanorm) (human); experiment: dynamic binding capacity, measured after 24 h cumulative exposure to 0.5 M NaOH; ligand 7.2 mg/ml on agarose beads
[52] = biological target: human polyclonal IgG (Gammanorm) (human); experiment: dynamic binding capacity, measured after six 4 h cycles in 1.0 M NaOH; ligand […] on agarose beads
[53] = biological target: human polyclonal IgG (Gammanorm) (human); experiment: dynamic binding capacity, 6 min residence; ligand […] on agarose beads; remark: listed apart in the source
[54] = biological target: human polyclonal IgG (Gammanorm) (human); experiment: dynamic binding capacity, 6 min residence; ligand 7.2 mg/ml on agarose beads

In the case of “Zvar(Q9A, N11E, Q40V, A42K, N43A, L44I)1 (designed binder)”, the Kd [1] is reported as 1.07 nM, the koff [1] is reported as 0.000437 s⁻¹ and the kon [1] is reported as 410000 M⁻¹ s⁻¹.

With “Zvar(Q9A, N11E, N28A, N43A)4 with an additional N-terminal cysteine (Example 4) (designed binder)” the Initial IgG capacity Qb10 [2] was 50 mg/mL, the Remaining IgG capacity Qb10 after six 4 h cycles [3] was 46.2 mg/mL and the Remaining IgG capacity Qb10 after six 4 h cycles [4] was 44.1 mg/mL. The Initial IgG capacity Qb10 [5] was 49.1 mg/mL.

In the case of “MabSelect SuRe LX (GE Healthcare Life Sciences)”, the Elution pH [6] is reported as 4.01 pH and the Elution pH [7] is reported as 3.7 pH.

“Zvar(Q9A, N11K, H18K, D37E, A42R)4 with an additional N-terminal cysteine (Example 4) (designed binder)” was tested, and the Remaining IgG capacity Qb10 after six 4 h cycles [8] was 52.5 mg/mL and the Initial IgG capacity Qb10 [9] was 56.9 mg/mL.

“Zvar(Q9A, N11E, Q40V, A42K, N43A, L44I)6 (designed binder)” gave a Qb10% 2.4 min [10] of 41 mg/mL, a Qb10% 6 min [10] of 56 mg/mL and a Qb10% 2.4 min [11] of 49 mg/mL. It also gave a Qb10% 6 min [11] of 60 mg/mL, a Qb10% 2.4 min [12] of 48 mg/mL and a Qb10% 6 min [12] of 59 mg/mL. It also gave a Qb10% 2.4 min [13] of 38 mg/mL, a Qb10% 6 min [13] of 65 mg/mL and a Qb10% 2.4 min [14] of 55 mg/mL. The Qb10% 6 min [14] was 80 mg/mL, the Qb10% 2.4 min [15] was 47 mg/mL and the Qb10% 6 min [15] was 57 mg/mL. It also gave a Qb10% 2.4 min [16] of 56 mg/mL, a Qb10% 6 min [16] of 75 mg/mL and a Qb10% 2.4 min [17] of 36 mg/mL. It also gave a Qb10% 6 min [17] of 49 mg/mL, a Qb10% 2.4 min [18] of 47 mg/mL and a Qb10% 6 min [18] of 55 mg/mL. For the same substance, the Qb10% 2.4 min [19] was 36 mg/mL, the Qb10% 6 min [19] was 62 mg/mL and the Qb10% 2.4 min [20] was 42 mg/mL. It also gave a Qb10% 6 min [20] of 46 mg/mL, a Qb10% 2.4 min [21] of 41 mg/mL and a Qb10% 6 min [21] of 65 mg/mL. The Qb10% 2.4 min [22] was 44 mg/mL, the Qb10% 6 min [22] was 53 mg/mL and the Qb10% 6 min [23] was 76 mg/mL. For the same substance, the Qb10% 2.4 min [24] was 31 mg/mL, the Qb10% 6 min [24] was 54 mg/mL and the Qb10% 2.4 min [25] was 53 mg/mL. It also gave a Qb10% 6 min [25] of 69 mg/mL, a Qb10% 2.4 min [26] of 43 mg/mL and a Qb10% 6 min [26] of 61 mg/mL. The Qb10% 2.4 min [27] was 31 mg/mL, the Qb10% 6 min [27] was 52 mg/mL and the Qb10% 2.4 min [28] was 62 mg/mL. The Qb10% 6 min [28] was 84 mg/mL, the Qb10% 2.4 min [29] was 44 mg/mL and the Qb10% 6 min [29] was 43 mg/mL. For the same substance, the Qb10% 2.4 min [30] was 51 mg/mL, the Qb10% 6 min [30] was 73 mg/mL and the Qb10% 2.4 min [31] was 50 mg/mL. It also gave a Qb10% 6 min [31] of 58 mg/mL, a Qb10% 2.4 min [32] of 56 mg/mL and a Qb10% 6 min [32] of 72 mg/mL. For the same substance, the Qb10% 2.4 min [33] was 20 mg/mL, the Qb10% 6 min [33] was 43 mg/mL and the Qb10% 2.4 min ([34]; ligand content 6.5 mg/ml) was 37 mg/mL. It also gave a Qb10% 6 min ([34]; ligand content 6.5 mg/ml) of 38 mg/mL, a Qb10% 2.4 min ([34]; ligand content 10.4 mg/ml) of 50 mg/mL and a Qb10% 6 min ([34]; ligand content 10.4 mg/ml) of 61 mg/mL. The Qb10% 2.4 min [35] was 38 mg/mL, the Qb10% 6 min [35] was 46 mg/mL and the Qb10% 2.4 min [36] was 59 mg/mL. For the same substance, the Qb10% 6 min [36] was 72 mg/mL, the Qb10% 2.4 min [37] was 48 mg/mL and the Qb10% 6 min [37] was 57 mg/mL. It also gave an Elution pH [38] of 3.81 pH, a Qb10% 2.4 min [39] of 38 mg/mL and a Qb10% 6 min [39] of 64 mg/mL. The Qb10% 2.4 min [40] was 62 mg/mL, the Qb10% 6 min [40] was 74 mg/mL and the Qb10% 2.4 min [41] was 50 mg/mL. It also gave a Qb10% 6 min [41] of 56 mg/mL, a Qb10% 2.4 min [42] of 57 mg/mL and a Qb10% 6 min [42] of 82 mg/mL. For the same substance, the Elution pH [43] was 4.24 pH, the Qb10% 2.4 min [44] was 61 mg/mL and the Qb10% 6 min [44] was 82 mg/mL. It also gave a Qb10% 2.4 min [45] of 48 mg/mL, a Qb10% 6 min [45] of 72 mg/mL and a Qb10% 2.4 min [46] of 48 mg/mL. It also gave a Qb10% 6 min [46] of 76 mg/mL.

“Zvar(N11K, H18K, S33K, D37E, A42R, N43A, L44I, K50R, L51Y)4 with an additional N-terminal cysteine (Examples 4 and 5) (designed binder)” was tested, and the Remaining IgG capacity Qb10 after six 4 h cycles [47] was 52 mg/mL, the Initial IgG capacity Qb10 [48] was 56.3 mg/mL and the Remaining IgG capacity Qb10 after six 4 h cycles [49] was 48.1 mg/mL. The Initial IgG capacity Qb10 [50] was 62.1 mg/mL.

Work on “Zvar(Q9A, N11E, Q40V, A42K, N43A, L44I)4 with an additional N-terminal cysteine (Examples 4 and 5) (designed binder)” yielded a Remaining IgG capacity Qb10 after six 4 h cycles [51] of 44.2 mg/mL, a Remaining IgG capacity Qb10 after six 4 h cycles [52] of 56 mg/mL and an Initial IgG capacity Qb10 [53] of 60.3 mg/mL. The Initial IgG capacity Qb10 [54] was 49 mg/mL, the Initial IgG capacity Qb10 [2] was 56.3 mg/mL and the Remaining IgG capacity Qb10 after six 4 h cycles [3] was 53.6 mg/mL.
